± gives the standard deviation of the averaged measurements.
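Further: ATP exposure 15 min at 22 °C before imaging.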

This data set concerns ATP. The data set is described as follows: switch fluorescence ratio, 500 uM ATP over buffer (Cy3 cluster intensity, sum of 5 cycles each) (fold (ratio)); higher = stronger signal-on switching upon ATP binding; sequences stand for … in TCGTCGGCAGCGTCAGATGTGTATAAGAGACAGTTTTTTTTTTTTTTTTTTTTTTTTT…TC. The settings on record: aptamer strand: ATP DNA aptamer (quencher-CACCTGGGGGAGTATTGCGGAGGAAGG + anchor), 100 nM annealed; ATP concentration: 500 uM. The gist of the method:
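Per cluster, summed Cy3 intensity from the target cycles was divided by that from the buffer cycles to give the fluorescence ratio, then averaged per switch-domain sequence. Clusters outside 100-1000 RFU were excluded. The Cy3-labelled switching-strand clusters, on a modified Illumina MiSeq flow-cell, were annealed to 100 nM quencher-labelled ATP aptamer and imaged in selection buffer, then after 15 min with 500 uM ATP at 22 °C, for five cycles with NaOH stripping and re-annealing between them.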
On to AATAGACGAA, for which the switch fluorescence ratio amounted to 1.01 ± 0.043.
With CATGATAGGT, the switch fluorescence ratio turned out to be 0.975 ± 0.057.
Under ATTGGTTTAA stands 0.9981 ± 0.002.
The value for GGGGCAGGAC was 1.54 ± 0.7; that for CGCATGCTGG was 1.02 ± 0.024.
Under TCGGGGGAAA stands 0.994 ± 0.036.
For the sequence AACGGGCTTT, the switch fluorescence ratio was determined as 0.969 ± 0.013.
The value for TTGGTGGGTG was 1.01 ± 0.045; that for ATGATTTTTC was 0.976 ± 0.039; that for AGGGGGGTCA was 0.976 ± 0.032.
For the sequence TTGGTTCGCC, the switch fluorescence ratio worked out at 1.003 ± 0.0097.
On to GAGACATTAC, for which the switch fluorescence ratio worked out at 1.61 ± 0.04.
Under AAGAACTATG stands 1.02 ± 0.034.
For the sequence AGGAATATGG, the switch fluorescence ratio stood at 1.04 ± 0.1.
With ATGGTCAGGT, the switch fluorescence ratio is 1.01 ± 0.019.
For the sequence TATCTGGGTT, the switch fluorescence ratio worked out at 1.06 ± 0.079.
With AAATGACGTT, the switch fluorescence ratio came out at 0.9688 ± 0.0078.
The value for GTTTTGCGTT was 0.988 ± 0.028; that for CAGAAAAAAC was 1.05 ± 0.035; that for GTGTGAAAGC was 1.011 ± 0.0035.
For ATTGTGTCTT, the switch fluorescence ratio worked out at 0.99 ± 0.013.
Under TAGGCTGCGA stands 1.04 ± 0.025; under ATGAAGCTAG, 1.06 ± 0.013; under GGTGGACTTA, 1.01 ± 0.03.
Under GGGGTAAGCG stands 0.978 ± 0.033; under TAGGTAGTCT, 1.02 ± 0.015; under GGCGAAGTCG, 0.999 ± 0.023.
The value for GGATGATTTG was 0.968 ± 0.025; that for TTGGCTGGCT was 1.08 ± 0.071.
In the case of TATGCACTGA, the switch fluorescence ratio turned out to be 1.06 ± 0.024.
The value for TTAAAAGGAA was 1.004 ± 0.0034; that for CGATGTCAGC was 1.073 ± 0.0036.
The value for AGGGGGCAGC was 1.01 ± 0.015; that for TTATCTGTTG was 1 ± 0.058; that for ATGTGCAATA was 1.94 ± 0.082.
With TACATGTGCT, the switch fluorescence ratio amounted to 0.996 ± 0.035.
Under TATCAAAGGG stands 1.023 ± 0.0067; under TTTTAGCCAG, 1.01 ± 0.032; under AGGAGCATTT, 1.04 ± 0.045.
The value for ACATACGAGT was 1.38 ± 0.029.
Under AAAAGGGA stands 0.982 ± 0.046; under TAAAGCGTAG, 0.998 ± 0.027; under GATCGGCGCG, 0.986 ± 0.025.
Consider CCGGAGGAGA, for which the switch fluorescence ratio was 1.06 ± 0.017.
Under GGGGGAGGTT stands 0.977 ± 0.029.
The value for TTAGGCGGCA was 0.974 ± 0.034; that for TTTAAAGTGG was 0.98 ± 0.015.
As to TTTTGATTGT, the switch fluorescence ratio was found to be 1.01 ± 0.055.
Under ATTAAAACTT stands 1.05 ± 0.026.
TTGGTGCAGC: the switch fluorescence ratio worked out at 1.025 ± 0.0075.
GACGATTCTT: the switch fluorescence ratio was 0.97989 ± 0.00092.
With GTACCATCTG, the switch fluorescence ratio was 0.976 ± 0.02.
Regarding TTGATCTTGA, the switch fluorescence ratio was determined as 0.955 ± 0.085.
The value for TTGAACGAGC was 0.99 ± 0.04.
GATCCTTGGG: the switch fluorescence ratio turned out to be 1.022 ± 0.0056.
Under TGTCGACCG stands 0.99 ± 0.014; under TCGAGAGAGG, 1.01 ± 0.049.
For TGAGGCATGT, the switch fluorescence ratio came out at 1.05 ± 0.036.
TTTGCACATT: the switch fluorescence ratio turned out to be 1.02 ± 0.069.
Under GCTATAATCG stands 1.073 ± 0.0027; under CAGTGTTA, 0.985 ± 0.064; under AGTCGTTGAG, 1.02 ± 0.033.
On to CTGGGGCCTA, for which the switch fluorescence ratio came out at 0.982 ± 0.023.
Under TTGGGGGATC stands 0.982 ± 0.015; under GAAGGCCTGT, 0.9745 ± 0.0097; under TCTTGTACGT, 1.01 ± 0.03.
The value for TTCGCAGGAT was 1.1 ± 0.027.
The value for CCTAGCGCGC was 1.09 ± 0.043.
TGTGGCAGGT: the switch fluorescence ratio was determined as 0.982 ± 0.031.
As for CCGAGACCGC, the switch fluorescence ratio turned out to be 2.71 ± 0.2.
The value for GAGCGAAAGG was 0.991 ± 0.025; that for ATTTTTCTGC was 1.03 ± 0.039.
The value for TTTGCGTTGT was 1.022 ± 0.0061; that for CTGAGAGATG was 0.9914 ± 0.0072.
Consider CGTATATGGC, for which the switch fluorescence ratio amounted to 1.1 ± 0.14.
In the case of TCGTTCGTAT, the switch fluorescence ratio was found to be 0.9875 ± 0.004.
The value for TGGTTTAACA was 0.9924 ± 0.003.
As to TCAGTTGGTT, the switch fluorescence ratio stood at 0.977 ± 0.064.
As for CTGACTTACG, the switch fluorescence ratio is 1.11 ± 0.016.
In the case of CAGGGTGAGT, the switch fluorescence ratio stood at 1.01 ± 0.022.
Regarding TAGGAGGGAG, the switch fluorescence ratio was determined as 1.02 ± 0.031.
Under ACAGTTCCCC stands 1.13 ± 0.25.
With GTTGTAGGGT, the switch fluorescence ratio turned out to be 0.976 ± 0.022.
With TATAGAGTAA, the switch fluorescence ratio amounted to 1.02 ± 0.034.
Under TTTATGGGGG stands 0.999 ± 0.034; under TATACGGTTA, 1.06 ± 0.022; under CTGTAATGGT, 1.04 ± 0.061.
Under TAGCTCGGGG stands 1.03 ± 0.035; under GCATGTGGGC, 0.967 ± 0.01.
Under TTTAGTATTT stands 1.01 ± 0.037.
For TATTCCGCC, the switch fluorescence ratio came to 2.29 ± 0.033.
Under TCAAAGGTTC stands 1.13 ± 0.16.
As to TTAGAGTATA, the switch fluorescence ratio turned out to be 1 ± 0.00038.
The value for TCGTCGTGGG was 1.02 ± 0.025.
Under ATAGGGGTTC stands 0.994 ± 0.035; under TTTTTAGTTA, 0.981 ± 0.01; under GTTCGAGAGC, 0.995 ± 0.057.
The value for GATCGGGGTT was 0.994 ± 0.036; that for GCTCTGGGTA was 1.05 ± 0.0082.
Regarding TATATGCGTG, the switch fluorescence ratio was 0.9932 ± 0.0039.
Under GGTGGCCCAA stands 1.001 ± 0.0059; under AGGGTAAGTC, 0.972 ± 0.043.
Take CTTATGAGCA: the switch fluorescence ratio turned out to be 1.038 ± 0.0023.
GTCCTTTTTT: the switch fluorescence ratio was found to be 0.97 ± 0.039.
AAATCTGAAG: the switch fluorescence ratio was determined as 0.9798 ± 0.0027.
For CGGTTGTAGG, the switch fluorescence ratio came to 0.999 ± 0.015.
Consider TATGGGTGAT, for which the switch fluorescence ratio was 1.01 ± 0.034.
Under CTAAACGGTG stands 1.03 ± 0.012; under ACTTTGAATG, 1.02 ± 0.027; under GACTTGCTGA, 1 ± 0.049.
In the case of ACATCTTCGA, the switch fluorescence ratio was determined as 0.97 ± 0.046.
Turning to ATGGGGAATA, the switch fluorescence ratio turned out to be 1.03 ± 0.0059.
The value for CGAGTGCCCA was 0.996 ± 0.033.
Under TGGGCTCGCC stands 1 ± 0.025; under ATCATTTGTT, 0.991 ± 0.017.
As for CAATAGGGCA, the switch fluorescence ratio was determined as 0.943 ± 0.024.
Under GAGAGTAGAG stands 0.992 ± 0.034.
Under AGATTTCGGC stands 1.039 ± 0.0015; under TATGATTACG, 1.03 ± 0.013; under TTAGCTTGTA, 1.07 ± 0.088.

The values above are taken from the supplement of paper PMC10126150.
